Tests used:
[1] = biological target: T1, human collagen type I (human, UniProt P02452 162-1218; P08123 80-1119); test: ELISA, h Col I coated on the plate, A 450-600 nm
T1 construct: Bought; also called h Col I; type I collagen
Protocol: (§1) High binding plates (Greiner, 781061) were immobilized with 2.5 μg/ml recombinant human collagen type II (h Col II, Chondrex, CHX-20051), rabbit collagen type II (rbCol II, prepared from rabbit eyes), porcine collagen type II (p Col II, prepared from porcine eyes), human collagen type I, (h Col I, Sigma, C5483-1MG), human collagen type V (h Col V, Abcam, ab7537), human collagen type III (h Col Ill, Abcam, ab7535) and 67B89 (domain of fibronectin, produced in E. coli) respectively over night at 4° C. ELISA-plates were washed 3 times with PBST (PBS+ 0.1% Tween) and blocked with 3% BSA/0.5% Tween/PBS 2 h at RT. […] Plates were washed with PBST and incubated with biotinylated anti-StrepTag-ab (Antikörper-online, ABIN1573895) with a dilution of 1:10.000 for 1 h at rt. The binding was visualized with a-rabbit-IgG-HRP (Sigma, A9169) with a dilution of 1:10.000 and as substrate TMB Plus von KEM EN TEC Diagnostic, Kat-Nr. 4395.
(§2) Results. ELISA analysis clearly confirms the specific binding to type II collagen. […] No unspecific binding to type I collagen, type III collagen, type V collagen or to a domain of fibronectin (67B89) was detected (FIG. 2).

[2] = biological target: T2, rabbit collagen type II (rabbit); test: ELISA, collagen coated on the plate, dilution series of the binder, detection via StrepTag, A 450-600 nm
T2 construct: Prepared from rabbit eyes; also called rbCol II
Protocol: as §1, §2

[3] = biological target: T3, porcine collagen type II (porcine); test: as above
T3 construct: Prepared in house from pig eyes; also called p Col II; porcine type II collagen
Protocol: as §1, §2

[4] = biological target: T4, human collagen type III (human, UniProt P02461 154-1221); test: ELISA, h Col III coated on the plate, A 450-600 nm
T4 construct: Bought; also called h Col III; type III collagen
T4 sequence (looked up): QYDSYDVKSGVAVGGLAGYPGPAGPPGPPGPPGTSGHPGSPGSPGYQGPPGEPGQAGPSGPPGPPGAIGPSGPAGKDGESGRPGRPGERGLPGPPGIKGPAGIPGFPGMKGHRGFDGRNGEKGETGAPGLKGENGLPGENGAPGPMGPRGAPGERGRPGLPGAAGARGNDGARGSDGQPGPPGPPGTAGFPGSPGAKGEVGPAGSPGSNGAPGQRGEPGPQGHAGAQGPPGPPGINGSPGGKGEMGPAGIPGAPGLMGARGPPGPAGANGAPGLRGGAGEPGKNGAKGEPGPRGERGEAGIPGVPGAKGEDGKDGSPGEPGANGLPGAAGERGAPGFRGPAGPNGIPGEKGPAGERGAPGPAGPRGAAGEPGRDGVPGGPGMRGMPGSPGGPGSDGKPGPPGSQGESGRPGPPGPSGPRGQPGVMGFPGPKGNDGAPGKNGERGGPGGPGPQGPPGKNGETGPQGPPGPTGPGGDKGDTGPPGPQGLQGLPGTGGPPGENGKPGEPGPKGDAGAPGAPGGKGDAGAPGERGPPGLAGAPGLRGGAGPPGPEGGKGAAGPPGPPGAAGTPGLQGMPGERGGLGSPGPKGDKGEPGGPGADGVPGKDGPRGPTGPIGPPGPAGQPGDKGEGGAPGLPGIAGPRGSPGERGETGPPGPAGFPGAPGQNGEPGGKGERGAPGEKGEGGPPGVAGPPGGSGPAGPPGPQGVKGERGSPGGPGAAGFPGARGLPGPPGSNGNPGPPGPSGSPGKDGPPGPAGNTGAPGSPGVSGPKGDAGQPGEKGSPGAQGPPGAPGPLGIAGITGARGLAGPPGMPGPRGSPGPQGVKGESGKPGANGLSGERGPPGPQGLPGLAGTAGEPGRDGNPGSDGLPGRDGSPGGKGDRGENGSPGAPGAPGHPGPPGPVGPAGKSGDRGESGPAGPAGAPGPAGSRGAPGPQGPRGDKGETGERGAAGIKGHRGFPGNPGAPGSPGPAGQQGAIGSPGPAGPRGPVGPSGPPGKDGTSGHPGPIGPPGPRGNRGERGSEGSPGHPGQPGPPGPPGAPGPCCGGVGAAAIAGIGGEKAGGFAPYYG
Protocol: as §1, §2

[5] = biological target: T5, 67B89 (domain of fibronectin) (UniProt P02751 1089-1540, limits assumed); test: ELISA, 67B89 coated on the plate, A 450-600 nm
T5 construct: domain: EDB (67B89); Unrelated control protein; also called fibronectin domain EDB (67B89); extradomain B of fibronectin
Protocol: as §1, §2

[6] = biological target: T6, human collagen type V (human, UniProt P20908 559-1570; P05997 216-1229); test: ELISA, h Col V coated on the plate, A 450-600 nm
T6 construct: Bought; also called h Col V; type V collagen
Protocol: as §1, §2

[7] = biological target: T4, human collagen type III; test: SPR (Biacore), response at steady state; concentration not shown
Protocol: (§3) The purified proteins were immobilized on a CM-5 sensor chip (GE Healthcare) using NHS/EDC after PDEA activation resulting in 110-140 RU with a Biacore 3000 system (GE Healthcare). The chip was equilibrated with SPR running buffer (PBS 0.05% Tween pH 7.3). Upon binding, target analyte was accumulated on the surface increasing the refractive index. This change in the refractive index was measured in real time and plotted as response or resonance units versus time. The analytes were applied to the chip in serial dilutions with a flow rate of 30 μl/min. The association was performed for 120 seconds and the dissociation for 120 seconds. After each run, the chip surface was regenerated with 30 μl regeneration buffer (10 mM glycine pH 2.0) and equilibrated with running buffer.
(§4) Binding studies were carried out by the use of the BIAcore 3000 (GE Healthcare); data evaluation was operated via the BIAevaluation 3.0 software, provided by the manufacturer, using the Langmuir 1:1 model (RI=0). Evaluated dissociation constants (KD) were standardized against the immobilized protein and indicated. Shown is the change in refractive index measured in real time and plotted as response or resonance unit [RU] versus time [sec].

[8] = biological target: T6, human collagen type V; test: as above
Protocol: as §3, §4

[9] = biological target: T1, human collagen type I; test: as above
Protocol: as §3, §4

[10] = biological target: T7, BSA (UniProt P02769 25-607); test: as above
T7 construct: Control protein
Protocol: as §3, §4

[11] = biological target: T5, 67B89 (domain of fibronectin); test: as above
Protocol: as §3, §4

[12] = biological target: T3, porcine collagen type II; test: ELISA (KD determination by ELISA, Example 5)
[13] = biological target: T6, human collagen type V; test: SPR (Biacore 3000)
Protocol: as §3, §4

[14] = biological target: T7, BSA; test: SPR (Biacore 3000)
Protocol: as §3, §4

[15] = biological target: T5, 67B89 (domain of fibronectin); test: SPR (Biacore 3000)
Protocol: as §3, §4

T1 sequence (P02452 162-1218, chain 1 of 2): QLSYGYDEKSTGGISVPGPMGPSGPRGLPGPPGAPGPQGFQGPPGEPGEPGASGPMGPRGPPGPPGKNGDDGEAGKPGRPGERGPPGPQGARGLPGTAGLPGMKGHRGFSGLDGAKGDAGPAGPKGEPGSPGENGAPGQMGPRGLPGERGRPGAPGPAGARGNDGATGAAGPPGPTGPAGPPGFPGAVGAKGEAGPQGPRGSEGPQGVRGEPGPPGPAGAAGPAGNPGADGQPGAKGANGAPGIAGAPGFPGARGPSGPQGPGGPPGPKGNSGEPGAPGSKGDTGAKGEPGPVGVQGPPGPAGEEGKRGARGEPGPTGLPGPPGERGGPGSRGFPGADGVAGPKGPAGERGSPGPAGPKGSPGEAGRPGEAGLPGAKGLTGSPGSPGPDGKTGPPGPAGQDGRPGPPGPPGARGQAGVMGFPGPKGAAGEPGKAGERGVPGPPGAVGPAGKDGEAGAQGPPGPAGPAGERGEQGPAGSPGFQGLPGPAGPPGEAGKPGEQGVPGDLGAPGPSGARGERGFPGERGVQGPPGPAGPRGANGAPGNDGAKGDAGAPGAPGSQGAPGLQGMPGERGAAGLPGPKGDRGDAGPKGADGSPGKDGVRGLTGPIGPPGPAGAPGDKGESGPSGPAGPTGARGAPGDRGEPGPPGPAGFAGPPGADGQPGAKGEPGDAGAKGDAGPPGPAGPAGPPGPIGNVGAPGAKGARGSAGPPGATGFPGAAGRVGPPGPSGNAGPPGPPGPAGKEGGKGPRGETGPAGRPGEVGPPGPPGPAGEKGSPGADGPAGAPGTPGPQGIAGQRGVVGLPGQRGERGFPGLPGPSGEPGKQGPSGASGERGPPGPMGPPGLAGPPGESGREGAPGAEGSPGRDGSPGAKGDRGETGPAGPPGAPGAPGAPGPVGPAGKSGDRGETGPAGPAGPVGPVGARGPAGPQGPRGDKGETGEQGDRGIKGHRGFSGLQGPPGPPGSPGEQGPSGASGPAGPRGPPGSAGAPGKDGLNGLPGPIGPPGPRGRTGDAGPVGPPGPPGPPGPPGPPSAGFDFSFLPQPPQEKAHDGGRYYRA
T1 sequence (P08123 80-1119, chain 2 of 2): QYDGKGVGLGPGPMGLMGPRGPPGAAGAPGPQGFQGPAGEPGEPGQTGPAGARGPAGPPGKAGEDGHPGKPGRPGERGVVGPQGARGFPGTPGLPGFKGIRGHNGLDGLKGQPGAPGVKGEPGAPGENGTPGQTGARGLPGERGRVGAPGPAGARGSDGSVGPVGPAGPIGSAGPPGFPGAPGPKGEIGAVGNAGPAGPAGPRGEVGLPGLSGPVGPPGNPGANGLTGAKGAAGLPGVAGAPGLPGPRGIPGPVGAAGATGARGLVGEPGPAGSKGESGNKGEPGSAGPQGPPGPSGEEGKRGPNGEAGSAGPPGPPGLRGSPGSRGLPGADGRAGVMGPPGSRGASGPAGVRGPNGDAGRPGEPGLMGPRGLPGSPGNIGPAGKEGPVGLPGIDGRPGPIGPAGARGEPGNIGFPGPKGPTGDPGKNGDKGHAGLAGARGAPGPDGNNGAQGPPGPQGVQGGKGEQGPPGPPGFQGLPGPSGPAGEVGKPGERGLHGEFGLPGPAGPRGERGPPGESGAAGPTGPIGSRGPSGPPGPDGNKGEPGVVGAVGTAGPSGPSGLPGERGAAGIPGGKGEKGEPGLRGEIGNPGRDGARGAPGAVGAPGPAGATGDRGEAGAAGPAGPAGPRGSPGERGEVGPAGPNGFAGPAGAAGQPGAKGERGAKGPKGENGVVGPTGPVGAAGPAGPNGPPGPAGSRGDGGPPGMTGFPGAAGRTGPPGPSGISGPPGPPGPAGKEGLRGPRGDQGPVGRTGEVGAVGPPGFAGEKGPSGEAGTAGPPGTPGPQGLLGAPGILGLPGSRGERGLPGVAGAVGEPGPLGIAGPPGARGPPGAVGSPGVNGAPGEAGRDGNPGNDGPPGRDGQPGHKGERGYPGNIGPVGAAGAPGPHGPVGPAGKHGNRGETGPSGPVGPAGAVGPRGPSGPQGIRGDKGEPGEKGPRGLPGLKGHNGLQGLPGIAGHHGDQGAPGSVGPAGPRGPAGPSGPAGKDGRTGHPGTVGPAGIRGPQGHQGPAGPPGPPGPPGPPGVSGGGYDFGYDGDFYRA
T5 sequence (P02751 1089-1540 limits assumed): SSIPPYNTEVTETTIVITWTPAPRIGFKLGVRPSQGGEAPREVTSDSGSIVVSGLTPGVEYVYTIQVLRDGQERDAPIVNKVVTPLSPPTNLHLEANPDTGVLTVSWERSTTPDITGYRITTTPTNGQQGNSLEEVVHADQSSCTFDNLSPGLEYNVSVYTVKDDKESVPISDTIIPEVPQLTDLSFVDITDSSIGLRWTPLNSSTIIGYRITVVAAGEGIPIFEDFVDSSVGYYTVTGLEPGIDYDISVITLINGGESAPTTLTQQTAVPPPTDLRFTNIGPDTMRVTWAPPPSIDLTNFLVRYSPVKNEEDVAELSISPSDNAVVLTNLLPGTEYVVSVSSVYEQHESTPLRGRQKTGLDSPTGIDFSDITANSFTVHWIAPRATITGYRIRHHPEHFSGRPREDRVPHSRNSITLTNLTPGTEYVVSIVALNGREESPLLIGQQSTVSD
T6 sequence (P20908 559-1570, chain 1 of 2): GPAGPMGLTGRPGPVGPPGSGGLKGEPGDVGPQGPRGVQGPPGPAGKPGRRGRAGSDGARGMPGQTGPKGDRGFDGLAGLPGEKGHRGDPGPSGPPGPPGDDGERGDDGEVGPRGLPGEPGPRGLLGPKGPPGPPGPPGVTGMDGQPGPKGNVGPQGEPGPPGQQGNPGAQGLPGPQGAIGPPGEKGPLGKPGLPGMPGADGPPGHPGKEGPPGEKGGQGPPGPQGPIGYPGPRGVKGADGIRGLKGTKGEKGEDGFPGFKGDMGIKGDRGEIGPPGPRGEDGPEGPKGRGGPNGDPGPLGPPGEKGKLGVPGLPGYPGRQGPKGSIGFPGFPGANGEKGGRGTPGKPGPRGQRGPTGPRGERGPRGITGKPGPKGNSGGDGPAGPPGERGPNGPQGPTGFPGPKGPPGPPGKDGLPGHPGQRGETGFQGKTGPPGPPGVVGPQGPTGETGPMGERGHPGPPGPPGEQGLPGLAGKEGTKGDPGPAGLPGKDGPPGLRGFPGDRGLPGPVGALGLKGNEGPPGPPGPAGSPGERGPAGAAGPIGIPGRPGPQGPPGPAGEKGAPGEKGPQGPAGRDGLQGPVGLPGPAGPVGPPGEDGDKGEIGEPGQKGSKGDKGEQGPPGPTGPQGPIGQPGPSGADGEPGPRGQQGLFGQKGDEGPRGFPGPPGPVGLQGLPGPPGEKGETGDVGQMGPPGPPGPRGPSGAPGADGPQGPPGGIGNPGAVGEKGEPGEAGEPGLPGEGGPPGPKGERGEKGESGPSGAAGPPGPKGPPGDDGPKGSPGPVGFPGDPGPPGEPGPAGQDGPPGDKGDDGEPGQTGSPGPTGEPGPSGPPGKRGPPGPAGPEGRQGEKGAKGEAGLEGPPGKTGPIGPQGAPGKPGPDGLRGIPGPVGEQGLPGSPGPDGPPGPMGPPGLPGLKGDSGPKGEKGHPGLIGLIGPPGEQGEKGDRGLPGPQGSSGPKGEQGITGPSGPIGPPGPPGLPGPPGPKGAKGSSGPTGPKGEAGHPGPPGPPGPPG
T6 sequence (P05997 216-1229, chain 2 of 2): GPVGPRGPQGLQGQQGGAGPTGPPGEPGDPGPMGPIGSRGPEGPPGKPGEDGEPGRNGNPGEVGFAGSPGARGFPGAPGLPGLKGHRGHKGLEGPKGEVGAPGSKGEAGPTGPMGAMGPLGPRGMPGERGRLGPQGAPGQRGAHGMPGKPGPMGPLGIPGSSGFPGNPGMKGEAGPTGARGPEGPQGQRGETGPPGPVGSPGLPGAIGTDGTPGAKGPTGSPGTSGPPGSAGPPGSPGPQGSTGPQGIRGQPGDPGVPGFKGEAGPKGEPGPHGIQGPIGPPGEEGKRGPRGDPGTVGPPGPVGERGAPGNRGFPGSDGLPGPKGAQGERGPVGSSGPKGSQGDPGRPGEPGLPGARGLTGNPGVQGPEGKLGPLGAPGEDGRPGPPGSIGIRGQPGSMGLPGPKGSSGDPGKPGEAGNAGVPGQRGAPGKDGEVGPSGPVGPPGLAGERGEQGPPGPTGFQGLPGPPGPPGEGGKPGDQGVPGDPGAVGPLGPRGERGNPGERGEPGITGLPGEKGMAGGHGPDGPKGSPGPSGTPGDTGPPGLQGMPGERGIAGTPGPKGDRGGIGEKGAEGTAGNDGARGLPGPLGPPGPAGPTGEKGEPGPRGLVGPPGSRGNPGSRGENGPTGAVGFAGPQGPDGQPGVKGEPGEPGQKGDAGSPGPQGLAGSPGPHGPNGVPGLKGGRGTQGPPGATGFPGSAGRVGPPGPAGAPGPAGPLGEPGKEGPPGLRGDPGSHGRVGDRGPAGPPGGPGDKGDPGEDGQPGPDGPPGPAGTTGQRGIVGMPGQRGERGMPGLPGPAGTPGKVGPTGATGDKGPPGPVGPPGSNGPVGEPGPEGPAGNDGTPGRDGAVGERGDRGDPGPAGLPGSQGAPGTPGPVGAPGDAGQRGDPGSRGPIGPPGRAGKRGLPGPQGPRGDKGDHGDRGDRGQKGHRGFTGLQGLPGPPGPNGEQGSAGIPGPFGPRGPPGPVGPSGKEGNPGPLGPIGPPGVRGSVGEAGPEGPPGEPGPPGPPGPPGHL

B1: CID 211999 (SEQ ID NO: 38), dimer of SEQ ID NO: 2 (directly joint monomers) (designed binder)
chain: IAAKFDEAQSAADSEILHLPNLTEQQRHYFRRWLSDDPSVSTHILTQAQHLNDDQAPKIAAKFDEAQSAADSEILHLPNLTEQQRHYFRRWLSDDPSVSTHILTQAQHLNDDQAPKSAWSHPQFEK
notes: not shown: C-terminal Strep-tag (detected with anti-StrepTag antibody)
B1 was tested, and the binding result [1] was “no binding (tested: about 1100 nM)”, the Kd [2] was 21.1 nM and the Kd [3] was 14.3 nM. B1: no binding (tested: about 1100 nM) [4]; no binding (tested: about 1100 nM) [5]; no binding (tested: about 1100 nM) [6].

B2: 211519 (SEQ ID NO: 37), homodimer of SEQ ID NO: 11 (designed binder)
chain: IAAKFDEAQQAAFYEILHLPNLTEQQRNYFIQWLRDDPSVSPTVLGTAQQLNDSQAPKIAAKFDEAQQAAFYEILHLPNLTEQQRNYFIQWLRDDPSVSPTVLGTAQQLNDSQAPK
notes: also called CID 211519; not shown: C-terminal Strep-tag from the expression vector
B2: no binding [7]; no binding [8]; no binding [9]. For the same binder, the binding result [10] was “no binding”, the binding result [11] was “no binding” and the Kd [12] was 700 nM.

B3: 211190 (SEQ ID NO: 1) (designed binder)
chain: NAASHDEAQLSALVEIWDLPNLTTRQKQKFIYSLQRDPSVSKEVLGEAQKLNDSQAPK
notes: also called CID211190; not shown: C-terminal Strep-tag from the expression vector
B3: no binding [13]; no binding [14]; no binding [15].

B4: CID 212000 (SEQ ID NO: 39), dimer of SEQ ID NO: 2 with linker between the monomers (designed binder)
chain: IAAKFDEAQSAADSEILHLPNLTEQQRHYFRRWLSDDPSVSTHILTQAQHLNDDQAPKGGGGSGGGGSGGGGSGGGGSIAAKFDEAQSAADSEILHLPNLTEQQRHYFRRWLSDDPSVSTHILTQAQHLNDDQAPKSAWSHPQFEK
notes: as for B1
For B4, the binding result [1] was “no binding (tested: about 1100 nM)”, the Kd [2] was 12 nM and the Kd [3] was 9.11 nM. B4: no binding (tested: about 1100 nM) [4]; no binding (tested: about 1100 nM) [5]; no binding (tested: about 1100 nM) [6].

B5: CID 212001 (SEQ ID NO: 41), tetramer of SEQ ID NO: 2 (designed binder)
chain: IAAKFDEAQSAADSEILHLPNLTEQQRHYFRRWLSDDPSVSTHILTQAQHLNDDQAPKIAAKFDEAQSAADSEILHLPNLTEQQRHYFRRWLSDDPSVSTHILTQAQHLNDDQAPKIAAKFDEAQSAADSEILHLPNLTEQQRHYFRRWLSDDPSVSTHILTQAQHLNDDQAPKIAAKFDEAQSAADSEILHLPNLTEQQRHYFRRWLSDDPSVSTHILTQAQHLNDDQAPKSAWSHPQFEK
notes: as for B1
In the case of B5, the binding result [1] is reported as “no binding (tested: 100 nM)”, the Kd [2] is reported as 0.21 nM and the Kd [3] is reported as 0.27 nM. B5: no binding (tested: 100 nM) [4]; no binding (tested: 100 nM) [5]; no binding (tested: 100 nM) [6].

Reference: US20230416345A1 (NAVIGO PROTEINS, published 2023)
